Data taken from patent publication US20160185837A1 (Medimmune Limited, priority 2013, published 2016).

Experiments:
[1] = biological target: T1, human GLP-1 receptor (hGLP-1r) (Homo sapiens, UniProt P43220); assay: BSA-cAMP assay, cells expressing human GLP-1 receptor; format: cell-based; details: Batch 1; BSA-cAMP assay; read-out: hGLP1r cAMP activity EC50
T1 construct: expressed in transfected cells
Procedure: (§1) One basic cAMP assays was performed, differing in the medium used for the assay, the “BSA-cAMP assay”:
(§2) BSA-based assay medium: 0.1% bovine serum albumin (BSA) in
(§3) In certain aspects, the assay can also be carried out in medium supplemented with serum albumin that corresponds to the receptor being tested, e.g., human serum albumin for testing cAMP activity at hGIPr or hGLP-1r, rat serum albumin for testing cAMP activity at rGIPr or rGLP-1r, and so on. […] All sample dilutions were made in duplicate.
(§4) A frozen cryo-vial of cells expressing the receptor of interest was thawed rapidly in a water-bath, transferred to pre-warmed assay media and spun at 240×g for 5 minutes. Cells were re-suspended in assay buffer at an optimized concentration (e.g., hGLP-1r and hGIPr cells at 0.5×10^5 cells/ml).
(§5) To this, 5 μL cell suspension was added and the plates incubated at room temperature for 30 minutes.
(§6) cAMP levels were measured using a commercially available cAMP dynamic 2 HTRF kit (Cisbio, Cat #62AM4PEJ), following the two step protocol as per manufacturer's recommendations. In brief; anti-cAMP cryptate (donor fluorophore) and cAMP-d2 (acceptor fluorophore) were made up separately by diluting each 1/20 in conjugate & lysis buffer provided in the kit. 5 μL anti-cAMP cryptate was added to all wells of the assay plate, and 5 μL cAMP-d2 added to all wells except non-specific binding (NSB) wells, to which conjugate and lysis buffer was added. […] Data was transformed to % Delta F as described in manufacturer's guidelines and then transformed to percent activation of maximal native agonist response and analysed by 4-parameter logistic fit to determine EC50 values.
(§7) We used unconstrained 4 parameter logistic fit of data, curve mid-point to determine EC50. This was tested on two occasions, not two batches.

[2] = biological target: T2, human GIP receptor (hGIPr) (Homo sapiens, UniProt P48546); assay: BSA-cAMP assay, cells expressing human GIP receptor; format: cell-based; details: Batch 1; BSA-cAMP assay; read-out: hGIPr cAMP activity EC50
T2 construct: expressed in transfected cells
T2 sequence (P48546 22-466): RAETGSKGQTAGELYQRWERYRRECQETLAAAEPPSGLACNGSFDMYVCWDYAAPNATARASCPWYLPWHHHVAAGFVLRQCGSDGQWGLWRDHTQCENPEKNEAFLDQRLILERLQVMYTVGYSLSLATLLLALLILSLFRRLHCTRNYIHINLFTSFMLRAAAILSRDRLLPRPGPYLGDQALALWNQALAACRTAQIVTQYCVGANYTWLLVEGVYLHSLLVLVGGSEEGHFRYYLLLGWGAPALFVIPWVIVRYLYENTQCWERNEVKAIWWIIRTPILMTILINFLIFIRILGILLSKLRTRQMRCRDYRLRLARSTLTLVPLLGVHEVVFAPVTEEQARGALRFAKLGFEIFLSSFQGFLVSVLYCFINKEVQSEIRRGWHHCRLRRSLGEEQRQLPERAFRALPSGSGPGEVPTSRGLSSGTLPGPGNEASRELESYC
Procedure: For human GIPr, two different lines were used, shown as “hGIPr” and “hGIPr (C3)” in Table 11.
as §1, §2, §3, §4, §5, §6, §7

[3] = biological target: T3, human glucagon receptor (GCGr) (Homo sapiens, UniProt P47871); assay: BSA-cAMP assay, cells expressing human glucagon receptor; format: cell-based; details: Batch 1, read-out: hGCGr cAMP activity EC50
T3 construct: expressed in transfected cells; host or cells: HEK293s or CHO cells
Procedure: as §1, §2, §3, §4, §5, §6, §7

[4] = biological target: T4, mouse GLP-1 receptor (mGLP-1r) (Mus musculus, UniProt O35659); assay: BSA-cAMP assay, cells expressing mouse GLP-1 receptor; format: cell-based; details: Batch 1; BSA-cAMP assay; read-out: mGLP1r cAMP activity EC50
T4 construct: expressed in transfected cells; host or cells: HEK293s or CHO cells
T4 sequence (O35659 22-463): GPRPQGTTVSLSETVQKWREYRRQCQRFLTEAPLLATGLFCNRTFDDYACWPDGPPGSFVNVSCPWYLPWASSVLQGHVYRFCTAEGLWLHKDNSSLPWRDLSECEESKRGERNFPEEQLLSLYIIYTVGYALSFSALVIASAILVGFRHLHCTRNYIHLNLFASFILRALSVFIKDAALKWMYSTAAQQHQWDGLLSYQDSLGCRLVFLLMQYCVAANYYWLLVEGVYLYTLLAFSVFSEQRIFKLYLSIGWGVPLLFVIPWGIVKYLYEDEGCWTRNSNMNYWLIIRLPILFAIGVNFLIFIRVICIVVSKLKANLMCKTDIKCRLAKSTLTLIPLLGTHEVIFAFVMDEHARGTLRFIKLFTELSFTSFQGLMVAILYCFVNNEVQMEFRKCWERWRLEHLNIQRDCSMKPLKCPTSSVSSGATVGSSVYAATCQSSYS
Procedure: as §1, §2, §3, §4, §5, §6, §7
(§8) In order to be able to carry out in vivo studies in rodents, IP088 was tested for potency against the mouse receptors mGIPr and mGLP-1r as well as the rat receptors rGIPr and rGLP-1r, using cells expressing the respective receptors in the cAMP assay described above.

[5] = biological target: T5, mouse GIP receptor (mGIPr) (Mus musculus, UniProt Q0P543); assay: BSA-cAMP assay, cells expressing mouse GIP receptor; format: cell-based; details: Batch 1; BSA-cAMP assay; read-out: mGIPr cAMP activity EC50
T5 construct: expressed in transfected cells; host or cells: HEK293s or CHO cells
T5 sequence (Q0P543 19-460): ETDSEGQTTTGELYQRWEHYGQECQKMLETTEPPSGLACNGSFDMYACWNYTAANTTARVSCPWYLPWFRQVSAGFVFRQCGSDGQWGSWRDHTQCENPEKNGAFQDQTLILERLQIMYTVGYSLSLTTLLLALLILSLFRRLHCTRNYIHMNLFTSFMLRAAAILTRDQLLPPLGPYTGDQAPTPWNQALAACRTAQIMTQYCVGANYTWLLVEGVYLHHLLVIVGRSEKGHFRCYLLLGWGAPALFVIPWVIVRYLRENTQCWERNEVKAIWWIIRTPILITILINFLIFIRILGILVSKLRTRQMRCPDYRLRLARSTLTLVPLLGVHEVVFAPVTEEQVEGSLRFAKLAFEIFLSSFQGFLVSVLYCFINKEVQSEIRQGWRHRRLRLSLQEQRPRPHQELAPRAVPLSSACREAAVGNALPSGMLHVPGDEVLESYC
Procedure: as §1, §2, §3, §4, §5, §6, §7, §8

[6] = biological target: T6, rat GLP-1 receptor (rGLP-1r) (Rattus norvegicus, UniProt P32301); assay: BSA-cAMP assay, cells expressing rat GLP-1 receptor; format: cell-based; details: Batch 1; BSA-cAMP assay; read-out: rGLP1r cAMP activity EC50
T6 construct: expressed in transfected cells; host or cells: HEK293s or CHO cells
T6 sequence (P32301 22-463): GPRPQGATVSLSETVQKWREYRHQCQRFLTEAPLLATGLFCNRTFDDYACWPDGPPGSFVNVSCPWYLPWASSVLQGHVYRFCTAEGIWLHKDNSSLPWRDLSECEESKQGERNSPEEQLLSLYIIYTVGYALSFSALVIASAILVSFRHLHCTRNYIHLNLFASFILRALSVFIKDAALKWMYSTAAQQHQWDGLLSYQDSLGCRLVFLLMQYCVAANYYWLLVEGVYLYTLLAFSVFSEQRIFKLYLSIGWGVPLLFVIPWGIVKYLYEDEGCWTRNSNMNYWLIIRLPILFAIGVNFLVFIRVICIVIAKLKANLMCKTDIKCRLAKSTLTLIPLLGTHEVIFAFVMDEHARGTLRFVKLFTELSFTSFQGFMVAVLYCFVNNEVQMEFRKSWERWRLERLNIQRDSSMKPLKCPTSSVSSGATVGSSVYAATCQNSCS
Procedure: as §1, §2, §3, §4, §5, §6, §7, §8

[7] = biological target: T7, rat GIP receptor (rGIPr) (Rattus norvegicus, UniProt P43219); assay: BSA-cAMP assay, cells expressing rat GIP receptor; format: cell-based; details: Batch 1; BSA-cAMP assay; read-out: rGIPr cAMP activity EC50
T7 construct: expressed in transfected cells; host or cells: HEK293s or CHO cells
T7 sequence (P43219 19-455): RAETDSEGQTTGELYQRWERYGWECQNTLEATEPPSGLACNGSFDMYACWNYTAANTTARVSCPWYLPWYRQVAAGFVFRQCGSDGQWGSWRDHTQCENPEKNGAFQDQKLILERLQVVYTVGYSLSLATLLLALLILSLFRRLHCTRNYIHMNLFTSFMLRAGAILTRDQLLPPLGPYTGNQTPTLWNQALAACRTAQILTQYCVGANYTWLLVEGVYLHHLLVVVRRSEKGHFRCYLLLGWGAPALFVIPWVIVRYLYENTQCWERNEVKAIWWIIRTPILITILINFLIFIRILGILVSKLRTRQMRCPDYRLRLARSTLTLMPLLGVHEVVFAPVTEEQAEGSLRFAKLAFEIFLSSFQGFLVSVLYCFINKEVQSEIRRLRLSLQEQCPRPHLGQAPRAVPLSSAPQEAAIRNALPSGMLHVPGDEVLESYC
Procedure: as §1, §2, §3, §4, §5, §6, §7, §8

[8] = biological target: T8, cyno GLP-1r (cGLP-1r) (Macaca fascicularis, UniProt F8V479); assay: cAMP assay, cells expressing cyno GLP-1r, 4.2% cyno serum albumin; format: cell-based, cynomolgus monkey
T8 construct: expressed in transfected cells
Excerpt: as §3, §4, §5
as §6, with “kit.” for “kit. 5 μL anti-cAMP cryptate was added to all wells of the assay plate, and 5 μL cAMP-d2 added to all wells except non-specific binding (NSB) wells, to which conjugate and lysis buffer was added.”

T1 sequence (P43220 24-463): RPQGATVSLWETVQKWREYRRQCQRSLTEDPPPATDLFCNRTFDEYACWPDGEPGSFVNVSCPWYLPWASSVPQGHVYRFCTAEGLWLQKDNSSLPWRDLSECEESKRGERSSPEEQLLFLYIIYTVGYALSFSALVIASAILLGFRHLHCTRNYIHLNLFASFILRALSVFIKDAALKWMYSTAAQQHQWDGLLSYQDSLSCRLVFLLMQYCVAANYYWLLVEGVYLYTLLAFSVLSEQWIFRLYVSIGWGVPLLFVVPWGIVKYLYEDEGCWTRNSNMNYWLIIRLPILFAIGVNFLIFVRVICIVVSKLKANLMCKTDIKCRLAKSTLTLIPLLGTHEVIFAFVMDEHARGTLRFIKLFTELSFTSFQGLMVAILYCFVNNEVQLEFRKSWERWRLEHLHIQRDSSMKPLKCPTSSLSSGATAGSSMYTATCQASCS
T3 sequence (P47871 26-477): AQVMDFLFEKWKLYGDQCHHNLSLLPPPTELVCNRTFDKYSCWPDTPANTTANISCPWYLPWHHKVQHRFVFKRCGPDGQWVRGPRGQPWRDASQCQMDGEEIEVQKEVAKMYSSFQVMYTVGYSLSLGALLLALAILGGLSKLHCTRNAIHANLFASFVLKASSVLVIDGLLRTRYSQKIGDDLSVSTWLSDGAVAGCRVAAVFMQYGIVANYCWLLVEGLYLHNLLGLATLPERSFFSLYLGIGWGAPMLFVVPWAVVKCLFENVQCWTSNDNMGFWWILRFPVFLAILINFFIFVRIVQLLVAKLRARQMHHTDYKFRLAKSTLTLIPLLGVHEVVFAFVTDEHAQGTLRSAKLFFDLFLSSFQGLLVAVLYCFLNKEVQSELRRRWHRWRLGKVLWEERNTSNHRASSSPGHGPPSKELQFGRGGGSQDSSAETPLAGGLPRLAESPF
T8 sequence (F8V479 24-463): as the sequence (P43220 24-463) above, with S112N, F120S, S202G, L205V, L237F, W241R, I249V counted along it

Row | EC50 [1] [nM] | EC50 [2] [nM] | EC50 [3] [nM] | EC50 [4] [nM] | EC50 [5] [nM] | EC50 [6] [nM] | EC50 [7] [nM] | Molecule | EC50 [8] [nM]
1 | > 3640 | 0.021 | 53 | > 3640 | 210 | 19 | 0.11 | IP299: Fc fusion, IgG1-TM(ΔK), SEQ ID NO:351; agonist peptide YSEGTFISDYSKLLEEEAVRDFVEWLKAGG (YSEGTFISDYSKLLEEEAVRDFVEWLKAGGGGGGGSGGGGSGGGGSGGGGSATHTCPPC) | 
2 | 0.091 | 0.0099 | 18 | 0.73 | 5.4 | 0.027 | 0.045 | IP381: Fc fusion, IgG1-fusion, SEQ ID NO:377; agonist peptide YSEGTFTSDYSKLLEEEAVRLFIEYLLAGG (YSEGTFTSDYSKLLEEEAVRLFIEYLLAGGGGGGSGGGGSGGGGSGGGGSATHTCPPC) | 
3 |  |  |  |  |  |  |  | CCCCCCCCCCCCCCCC(=O)N[C@@H](CCC(=O)NCCCC[C@H](NC(=O)[C@H](C)NC(=O)[C@H](C)NC(=O)[C@H](CCC(N)=O)NC(=O)CNC(=O)[C@H](CCC(=O)O)NC(=O)[C@H](CC(C)C)NC(=O)[C@H](Cc1ccc(O)cc1)NC(=O)[C@H](CO)NC(=O)[C@H](CO)NC(=O)[C@@H](NC(=O)[C@H](CC(=O)O)NC(=O)[C@H](CO)NC(=O)[C@@H](NC(=O)[C@H](Cc1ccccc1)NC(=O)[C@@H](NC(=O)CNC(=O)[C@H](CCC(=O)O)NC(=O)[C@H](C)NC(=O)[C@@H](N)Cc1cnc[nH]1)[C@@H](C)O)[C@@H](C)O)C(C)C)C(=O)N[C@@H](CCC(=O)O)C(=O)N[C@@H](Cc1ccccc1)C(=O)N[C@H](C(=O)N[C@@H](C)C(=O)N[C@@H](Cc1c[nH]c2ccccc12)C(=O)N[C@@H](CC(C)C)C(=O)N[C@H](C(=O)N[C@@H](CCCNC(=N)N)C(=O)NCC(=O)N[C@@H](CCCNC(=N)N)C(=O)NCC(=O)O)C(C)C)[C@@H](C)CC)C(=O)O [liraglutide] | 0.025
